B1: RapF [B. subtilis] / PhrC [B. subtilis] (parent)
chain 1: MTGVISSSSIGEKINEWYMYIRRFSIPDAEYLRREIKQELDQMEEDQDLHLYYSLMEFRHNLMLEYLEPLEKMRIEEQPRLSDLLLEIDKKQARLTGLLEYYFNFFRGMYELDQREYLSAIKFFKKAESKLIFVKDRIEKAEFFFKMSESYYYMKQTYFSMDYARQAYEIYKEHEAYNIRLLQCHSLFATNFLDLKQYEDAISHFQKAYSMAEAEKQPQLMGRTLYNIGLCKNSQSQYEDAIPYFKRAIAVFEESNILPSLPQAYFLITQIHYKLGKIDKAHEYHSKGMAYSQKAGDVIYLSEFEFLKSLYLSGPDEEAIQGFFDFLESKMLYADLEDFAIDVAKYYHERKNFQKASAYFLKVEQVRQLIQGGVSLYEIEV
chain 2: ERGMT
B2: RapF [B. subtilis] / PhrF [B. subtilis] (parent)
chain 1: B1 chain 1
chain 2: QRGMI

Variants of: B1
Assay: thermal-shift assay (Sypro orange fluorescence)
Conditions: with PhrC [B. subtilis], printed Tm without peptide: mutant 50.1 °C, wild type 49.5 °C

Row | screen value [°C] | Variant
1 | 49.2 | chain 1 N227A

Same assay, conditions: with PhrC [B. subtilis], printed Tm without peptide: mutant 51.3 °C, wild type 49.5 °C

Row | screen value [°C] | Variant
2 | 53.8 | chain 1 E303A

Same assay, conditions: with PhrC [B. subtilis], printed Tm without peptide: mutant 53.4 °C, wild type 49.5 °C

Row | screen value [°C] | Variant
3 | 52.3 | chain 1 D194A

Variants of: B2
Assay: thermal-shift assay (Sypro orange fluorescence)
Conditions: with PhrF [B. subtilis], printed Tm without peptide: mutant 53.4 °C, wild type 49.5 °C

Row | screen value [°C] | Variant
4 | 53.3 | chain 1 D194A

Same assay, conditions: with PhrF [B. subtilis], printed Tm without peptide: mutant 50.1 °C, wild type 49.5 °C

Row | screen value [°C] | Variant
5 | 49.2 | chain 1 N227A
